Measurements as given in patent publication US20190177417A1 (BIOATLA, published 2019).

T1: Axl protein (human, UniProt P30530 26-451)
T1 construct: extracellular domain; also called human Axl; hAxl
T1 sequence (looked up): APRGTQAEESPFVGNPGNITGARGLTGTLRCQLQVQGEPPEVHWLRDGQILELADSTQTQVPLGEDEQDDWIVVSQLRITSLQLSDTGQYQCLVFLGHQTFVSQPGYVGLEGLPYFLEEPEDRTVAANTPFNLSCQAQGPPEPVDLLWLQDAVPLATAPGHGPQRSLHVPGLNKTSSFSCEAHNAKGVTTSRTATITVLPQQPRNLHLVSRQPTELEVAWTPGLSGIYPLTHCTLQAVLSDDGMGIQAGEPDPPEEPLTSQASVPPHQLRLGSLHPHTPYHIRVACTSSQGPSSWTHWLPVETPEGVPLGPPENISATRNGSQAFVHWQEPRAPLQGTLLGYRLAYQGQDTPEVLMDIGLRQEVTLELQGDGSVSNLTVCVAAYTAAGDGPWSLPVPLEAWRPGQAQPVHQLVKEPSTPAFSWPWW

B1: HC-F105T (antibody, V domains shown)
VH: EVQLVQSGAEVKKPGATVKISCKVSGYSFTGHTMNWIRQPPGKGLEWIGLIKPSNGGTSYNQKFKGRVTISADKSISTAYLQWSSLKASDTAMYYCAHGHYESYTAMDYWGQGTLVTVSS
VL: DIQMTQSPSSLSASVGDRVTITCKASQDVSSAVAWYQQKPGQAPRLLIYWASTRHTGVPSRFSGSGSGTEFTLTISSLQPDDFATYYCQEHFSTPLTFGQGTKVEIK
B2: HC-E102H (antibody, V domains shown)
VH: EVQLVQSGAEVKKPGATVKISCKVSGYSFTGHTMNWIRQPPGKGLEWIGLIKPSNGGTSYNQKFKGRVTISADKSISTAYLQWSSLKASDTAMYYCAHGHYHSYFAMDYWGQGTLVTVSS
VL: DIQMTQSPSSLSASVGDRVTITCKASQDVSSAVAWYQQKPGQAPRLLIYWASTRHTGVPSRFSGSGSGTEFTLTISSLQPDDFATYYCQEHFSTPLTFGQGTKVEIK
B3: HC-E102G (antibody, V domains shown)
VH: EVQLVQSGAEVKKPGATVKISCKVSGYSFTGHTMNWIRQPPGKGLEWIGLIKPSNGGTSYNQKFKGRVTISADKSISTAYLQWSSLKASDTAMYYCAHGHYGSYFAMDYWGQGTLVTVSS
VL: DIQMTQSPSSLSASVGDRVTITCKASQDVSSAVAWYQQKPGQAPRLLIYWASTRHTGVPSRFSGSGSGTEFTLTISSLQPDDFATYYCQEHFSTPLTFGQGTKVEIK
B4: HC-M107F (antibody, V domains shown)
VH: EVQLVQSGAEVKKPGATVKISCKVSGYSFTGHTMNWIRQPPGKGLEWIGLIKPSNGGTSYNQKFKGRVTISADKSISTAYLQWSSLKASDTAMYYCAHGHYESYFAFDYWGQGTLVTVSS
VL: DIQMTQSPSSLSASVGDRVTITCKASQDVSSAVAWYQQKPGQAPRLLIYWASTRHTGVPSRFSGSGSGTEFTLTISSLQPDDFATYYCQEHFSTPLTFGQGTKVEIK
B5: HC-A106L (antibody, V domains shown)
VH: EVQLVQSGAEVKKPGATVKISCKVSGYSFTGHTMNWIRQPPGKGLEWIGLIKPSNGGTSYNQKFKGRVTISADKSISTAYLQWSSLKASDTAMYYCAHGHYESYFLMDYWGQGTLVTVSS
VL: DIQMTQSPSSLSASVGDRVTITCKASQDVSSAVAWYQQKPGQAPRLLIYWASTRHTGVPSRFSGSGSGTEFTLTISSLQPDDFATYYCQEHFSTPLTFGQGTKVEIK
B6: HC-M107E (antibody, V domains shown)
VH: EVQLVQSGAEVKKPGATVKISCKVSGYSFTGHTMNWIRQPPGKGLEWIGLIKPSNGGTSYNQKFKGRVTISADKSISTAYLQWSSLKASDTAMYYCAHGHYESYFAEDYWGQGTLVTVSS
VL: DIQMTQSPSSLSASVGDRVTITCKASQDVSSAVAWYQQKPGQAPRLLIYWASTRHTGVPSRFSGSGSGTEFTLTISSLQPDDFATYYCQEHFSTPLTFGQGTKVEIK
B7: HC-A106Y (antibody, V domains shown)
VH: EVQLVQSGAEVKKPGATVKISCKVSGYSFTGHTMNWIRQPPGKGLEWIGLIKPSNGGTSYNQKFKGRVTISADKSISTAYLQWSSLKASDTAMYYCAHGHYESYFYMDYWGQGTLVTVSS
VL: DIQMTQSPSSLSASVGDRVTITCKASQDVSSAVAWYQQKPGQAPRLLIYWASTRHTGVPSRFSGSGSGTEFTLTISSLQPDDFATYYCQEHFSTPLTFGQGTKVEIK
B8: HC-W110R (antibody, V domains shown)
VH: EVQLVQSGAEVKKPGATVKISCKVSGYSFTGHTMNWIRQPPGKGLEWIGLIKPSNGGTSYNQKFKGRVTISADKSISTAYLQWSSLKASDTAMYYCAHGHYESYFAMDYRGQGTLVTVSS
VL: DIQMTQSPSSLSASVGDRVTITCKASQDVSSAVAWYQQKPGQAPRLLIYWASTRHTGVPSRFSGSGSGTEFTLTISSLQPDDFATYYCQEHFSTPLTFGQGTKVEIK
B9: HC-W110D (antibody, V domains shown)
VH: EVQLVQSGAEVKKPGATVKISCKVSGYSFTGHTMNWIRQPPGKGLEWIGLIKPSNGGTSYNQKFKGRVTISADKSISTAYLQWSSLKASDTAMYYCAHGHYESYFAMDYDGQGTLVTVSS
VL: DIQMTQSPSSLSASVGDRVTITCKASQDVSSAVAWYQQKPGQAPRLLIYWASTRHTGVPSRFSGSGSGTEFTLTISSLQPDDFATYYCQEHFSTPLTFGQGTKVEIK
B10: HC-A106D (antibody, V domains shown)
VH: EVQLVQSGAEVKKPGATVKISCKVSGYSFTGHTMNWIRQPPGKGLEWIGLIKPSNGGTSYNQKFKGRVTISADKSISTAYLQWSSLKASDTAMYYCAHGHYESYFDMDYWGQGTLVTVSS
VL: DIQMTQSPSSLSASVGDRVTITCKASQDVSSAVAWYQQKPGQAPRLLIYWASTRHTGVPSRFSGSGSGTEFTLTISSLQPDDFATYYCQEHFSTPLTFGQGTKVEIK
B11: HC-W110L (antibody, V domains shown)
VH: EVQLVQSGAEVKKPGATVKISCKVSGYSFTGHTMNWIRQPPGKGLEWIGLIKPSNGGTSYNQKFKGRVTISADKSISTAYLQWSSLKASDTAMYYCAHGHYESYFAMDYLGQGTLVTVSS
VL: DIQMTQSPSSLSASVGDRVTITCKASQDVSSAVAWYQQKPGQAPRLLIYWASTRHTGVPSRFSGSGSGTEFTLTISSLQPDDFATYYCQEHFSTPLTFGQGTKVEIK
B12: HC-A106G (antibody, V domains shown)
VH: EVQLVQSGAEVKKPGATVKISCKVSGYSFTGHTMNWIRQPPGKGLEWIGLIKPSNGGTSYNQKFKGRVTISADKSISTAYLQWSSLKASDTAMYYCAHGHYESYFGMDYWGQGTLVTVSS
VL: DIQMTQSPSSLSASVGDRVTITCKASQDVSSAVAWYQQKPGQAPRLLIYWASTRHTGVPSRFSGSGSGTEFTLTISSLQPDDFATYYCQEHFSTPLTFGQGTKVEIK
B13: HC-W110A (antibody, V domains shown)
VH: EVQLVQSGAEVKKPGATVKISCKVSGYSFTGHTMNWIRQPPGKGLEWIGLIKPSNGGTSYNQKFKGRVTISADKSISTAYLQWSSLKASDTAMYYCAHGHYESYFAMDYAGQGTLVTVSS
VL: DIQMTQSPSSLSASVGDRVTITCKASQDVSSAVAWYQQKPGQAPRLLIYWASTRHTGVPSRFSGSGSGTEFTLTISSLQPDDFATYYCQEHFSTPLTFGQGTKVEIK
B14: HC-W110N (antibody, V domains shown)
VH: EVQLVQSGAEVKKPGATVKISCKVSGYSFTGHTMNWIRQPPGKGLEWIGLIKPSNGGTSYNQKFKGRVTISADKSISTAYLQWSSLKASDTAMYYCAHGHYESYFAMDYNGQGTLVTVSS
VL: DIQMTQSPSSLSASVGDRVTITCKASQDVSSAVAWYQQKPGQAPRLLIYWASTRHTGVPSRFSGSGSGTEFTLTISSLQPDDFATYYCQEHFSTPLTFGQGTKVEIK
B15: HC-F105V (antibody, V domains shown)
VH: EVQLVQSGAEVKKPGATVKISCKVSGYSFTGHTMNWIRQPPGKGLEWIGLIKPSNGGTSYNQKFKGRVTISADKSISTAYLQWSSLKASDTAMYYCAHGHYESYVAMDYWGQGTLVTVSS
VL: DIQMTQSPSSLSASVGDRVTITCKASQDVSSAVAWYQQKPGQAPRLLIYWASTRHTGVPSRFSGSGSGTEFTLTISSLQPDDFATYYCQEHFSTPLTFGQGTKVEIK
B16: HC-W110T (antibody, V domains shown)
VH: EVQLVQSGAEVKKPGATVKISCKVSGYSFTGHTMNWIRQPPGKGLEWIGLIKPSNGGTSYNQKFKGRVTISADKSISTAYLQWSSLKASDTAMYYCAHGHYESYFAMDYTGQGTLVTVSS
VL: DIQMTQSPSSLSASVGDRVTITCKASQDVSSAVAWYQQKPGQAPRLLIYWASTRHTGVPSRFSGSGSGTEFTLTISSLQPDDFATYYCQEHFSTPLTFGQGTKVEIK
B17: HC-E102M (antibody, V domains shown)
VH: EVQLVQSGAEVKKPGATVKISCKVSGYSFTGHTMNWIRQPPGKGLEWIGLIKPSNGGTSYNQKFKGRVTISADKSISTAYLQWSSLKASDTAMYYCAHGHYMSYFAMDYWGQGTLVTVSS
VL: DIQMTQSPSSLSASVGDRVTITCKASQDVSSAVAWYQQKPGQAPRLLIYWASTRHTGVPSRFSGSGSGTEFTLTISSLQPDDFATYYCQEHFSTPLTFGQGTKVEIK

Key:
[1] = target: T1, Axl protein; test: ELISA, 1:3 dilution, pH 6.0 over pH 7.4
[2] = target: T1, Axl protein; test: ELISA, 1:9 dilution, pH 6.0 over pH 7.4

Row | Binder | Affinity ELISA CPE mutant ratio (1:3, pH 6.0/7.4) [1] [ratio] | Affinity ELISA CPE mutant ratio (1:9, pH 6.0/7.4) [2] [ratio]
1 | B1 | 3.46 | 4.02
2 | B2 | 2.08 | 2.31
3 | B3 | 1.8 | 2.68
4 | B4 | 20.6 | 1.09
5 | B5 | 21.5 | 1.61
6 | B6 | 2.16 | 1.36
7 | B7 | 3.29 | 3.06
8 | B8 | 5.99 | 1.06
9 | B9 | 3.72 | 1.11
10 | B10 | 3.39 | 2.51
11 | B11 | 8.22 | 0.924
12 | B12 | 1.52 | 2.2
13 | B13 | 7.91 | 1.2
14 | B14 | 4.3 | 0.8
15 | B15 | 2.43 | 2.8
16 | B16 | 7.47 | 1.37
17 | B17 | 2.08 | 2.36
